1 protein from article PMC12338573 (bioRxiv, 2025) can be followed below.

The data set concerns the molecule itself. Put plainly: SEC-MALS.

B1: hFcµ-tFcµ-chi3 with Cys414 mutated (domain or fragment)
chain: TAIRVFAIPPSFASIFLTKSTKLTCLVTDLTTYDSVTISWTRQNGEAVKTHTNISESHPNATFSAVGEASIAEDDWNSGERFTCTVTHTDLPSPLKQTISRPKGVALHRPDVYLLPPAREQLNLRESATITCLVTGFSPADVFVQWMQRGQPLSPEKYVTSAPMPEPQAPGRYFAHSILTVSEEEWNTGETYTCVVAHEALPNRVTERTVDRTSNQPNLVNLSLNVPQRCMAQ
For B1, the “pentamer:monomer ratio” value is 14%.
